Laboratory results as given in IntAct's records for PubMed 40088780.

Target: tor1a_human TOR1A (UniProt O14656)

## Torsin-1A-interacting protein 2 (Homo sapiens), Q8NFQ8 R412G
  effect of a mutation on the interaction: decreasing interaction strength
